This experiment has as its target T1, mouse CD30L (mouse, UniProt P32972 68-239, limits assumed).
T1 construct: also called rmCD30L
T1 sequence (looked up): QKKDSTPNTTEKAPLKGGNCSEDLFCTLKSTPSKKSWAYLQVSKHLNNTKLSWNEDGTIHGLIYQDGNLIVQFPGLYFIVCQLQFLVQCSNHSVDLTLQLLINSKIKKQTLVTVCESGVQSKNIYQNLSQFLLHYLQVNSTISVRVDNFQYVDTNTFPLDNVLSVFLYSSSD
In words: screening of a rat campaign with mouse CD30L antigen.

B1: clone 111, function blocking rat anti-mouse CD30L antibody (antibody, mouse IgG2a, V domains shown)
VH: EVKLQQSGDELVRPGASVKMSCKASGYTFTDYAMHWVKQSPGQGLEWIGSIIPLIDTTSYNQKFKGKATLTADKSSNTAYMELSRLTSEDSAVYYCARLGSRYLEGFDYWGQGVMVTVSS
VL: DIQMTQSPSSMSASLGDTVTINCLASQDIGNYLSWYQQKPGKSPKLMIYGATNLEDGVPSRFSGSGSGSDYSLTINSLGYDDEGIYHCHQYYEYPLTFGSGTKLEIK
notes: Rat antibody as found in the screen
With B1, the binding result was “binds”.

For the origin of these results see patent US20250340660A1 (published 2025).
